According to patent US20180009892A1:

Molecular target: human ROR1 extracellular domain (ECD) protein (human) (UniProt Q01973)
Experiment: ForteBio Octet, blocking of Wnt5a binding to ROR1

Sequence of human ROR1 extracellular domain (ECD) protein (human) (Q01973 30-406 limits assumed): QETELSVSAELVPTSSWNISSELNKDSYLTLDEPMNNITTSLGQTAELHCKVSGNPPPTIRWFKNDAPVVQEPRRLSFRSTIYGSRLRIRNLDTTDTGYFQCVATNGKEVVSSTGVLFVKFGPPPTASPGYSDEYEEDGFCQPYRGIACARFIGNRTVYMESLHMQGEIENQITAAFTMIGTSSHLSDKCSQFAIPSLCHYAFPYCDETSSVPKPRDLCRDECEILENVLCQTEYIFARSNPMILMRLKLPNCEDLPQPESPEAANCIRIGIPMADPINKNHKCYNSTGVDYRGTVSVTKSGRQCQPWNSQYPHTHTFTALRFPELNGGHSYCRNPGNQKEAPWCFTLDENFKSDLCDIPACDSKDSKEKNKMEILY

Percentage Blocking: 0%
Substance: mAb Control (antibody)
